Reference: patent US20250115678A1 (AstraZeneca / MedImmune, published 2025)

What was measured:
recombinant human CD8ab = target: T1, recombinant human CD8ab (human, UniProt P01732 22-182; P10966 22-170); assay: SPR (Biacore), soluble antigen, mean ± SD of three experiments
T1 construct: Soluble form of the CD8 alpha/beta heterodimer; construct not described
Protocol: (§1) KD were calculated as the ratio of koff/kₒₙ from a non-linear fit of the data. Values are presented as mean±standard deviation (SD) of three experiments.

[1] = target: T2, recombinant cynomolgus monkey CD8ab (cynomolgus monkey); assay: as above
T2 construct: Soluble form of the CD8 alpha/beta heterodimer; construct not described
Protocol: as §1

[2] = target: T3, soluble recombinant human GPC3 protein (human, UniProt P51654 25-559, biotinylated in the biolayer interferometry assay); assay: as above
T3 construct: also called GPC3 human
Protocol: as §1

[3] = target: recombinant cynomolgus monkey GPC3 (cynomolgus monkey, UniProt A0A2K5VK50 24-558); assay: as above
Protocol: as §1

[4] = target: T4, GPC3 on human hepatoma cells (Hep3B, HepG2) (human, UniProt P51654 25-554); assay: flow cytometry on Hep3B cells, goat anti-human-IgG-APC; Hep3B cells
T4 construct: whole, on cells; also called Glypican-3
Protocol: (§2) Cell bindings were measured by flow cytometry.
as §2

[5] = target: T4, GPC3 on human hepatoma cells (Hep3B, …); assay: flow cytometry on HepG2 cells, goat anti-human-IgG-APC; HepG2 cells
Protocol: as §2, §2

[6] = target: T5, LRRC15 on LRRC15pos tumour cell lines (Saos-2 WT, RPMI-7951 WT) (UniProt Q8TF66 22-581, limits assumed); assay: Flow cytometry on Saos-2 WT cells (LRRC15pos), detected with anti-human Fc Alexa Fluor 647 (MFI)
T5 construct: whole, on cells; also called leucine rich repeat containing 15
T5 sequence (looked up): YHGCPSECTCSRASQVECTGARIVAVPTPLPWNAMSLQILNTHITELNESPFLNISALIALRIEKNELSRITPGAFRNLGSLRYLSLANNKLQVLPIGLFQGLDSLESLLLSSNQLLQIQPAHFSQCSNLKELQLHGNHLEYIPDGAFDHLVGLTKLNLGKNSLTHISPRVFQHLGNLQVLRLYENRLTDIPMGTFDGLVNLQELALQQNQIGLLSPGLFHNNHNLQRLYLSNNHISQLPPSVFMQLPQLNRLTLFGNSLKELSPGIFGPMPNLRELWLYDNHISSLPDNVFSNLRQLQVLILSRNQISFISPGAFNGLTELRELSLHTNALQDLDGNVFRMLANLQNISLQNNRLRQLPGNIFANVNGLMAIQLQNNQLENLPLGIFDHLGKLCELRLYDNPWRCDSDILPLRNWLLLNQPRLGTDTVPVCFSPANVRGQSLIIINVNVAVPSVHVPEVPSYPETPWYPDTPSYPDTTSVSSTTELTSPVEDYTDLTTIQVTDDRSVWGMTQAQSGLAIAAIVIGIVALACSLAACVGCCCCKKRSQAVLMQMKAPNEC

[7] = target: T5, LRRC15 on LRRC15pos tumour cell lines …; assay: Flow cytometry on RPMI-7951 WT cells (LRRC15pos), detected with anti-human Fc Alexa Fluor 647 (MFI)

T1 sequence (P01732 22-182, chain 1 of 2): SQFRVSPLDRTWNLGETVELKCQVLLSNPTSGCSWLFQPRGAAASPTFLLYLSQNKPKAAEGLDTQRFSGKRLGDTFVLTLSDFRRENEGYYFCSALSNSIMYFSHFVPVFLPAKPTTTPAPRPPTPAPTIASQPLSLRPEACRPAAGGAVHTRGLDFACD
T1 sequence (P10966 22-170, chain 2 of 2): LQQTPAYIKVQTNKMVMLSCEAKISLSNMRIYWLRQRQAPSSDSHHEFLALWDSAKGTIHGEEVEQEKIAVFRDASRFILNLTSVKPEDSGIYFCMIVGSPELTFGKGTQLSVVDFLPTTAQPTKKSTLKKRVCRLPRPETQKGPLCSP
T3 sequence (P51654 25-559 limits assumed): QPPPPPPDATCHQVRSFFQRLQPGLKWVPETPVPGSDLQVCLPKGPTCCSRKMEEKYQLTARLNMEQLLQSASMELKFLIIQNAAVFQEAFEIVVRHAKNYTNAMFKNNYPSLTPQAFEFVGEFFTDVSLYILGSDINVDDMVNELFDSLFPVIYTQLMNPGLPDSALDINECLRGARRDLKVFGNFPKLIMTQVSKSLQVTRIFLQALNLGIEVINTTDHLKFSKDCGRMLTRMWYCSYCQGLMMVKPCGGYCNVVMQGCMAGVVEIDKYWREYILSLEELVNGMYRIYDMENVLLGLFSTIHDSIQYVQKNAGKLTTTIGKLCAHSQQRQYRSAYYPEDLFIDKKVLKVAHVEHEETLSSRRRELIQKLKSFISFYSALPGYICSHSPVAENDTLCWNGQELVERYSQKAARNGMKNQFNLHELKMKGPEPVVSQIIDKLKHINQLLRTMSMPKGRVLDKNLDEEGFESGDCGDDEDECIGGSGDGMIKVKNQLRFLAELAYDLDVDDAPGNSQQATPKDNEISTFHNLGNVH
T4 sequence (P51654 25-554 limits assumed): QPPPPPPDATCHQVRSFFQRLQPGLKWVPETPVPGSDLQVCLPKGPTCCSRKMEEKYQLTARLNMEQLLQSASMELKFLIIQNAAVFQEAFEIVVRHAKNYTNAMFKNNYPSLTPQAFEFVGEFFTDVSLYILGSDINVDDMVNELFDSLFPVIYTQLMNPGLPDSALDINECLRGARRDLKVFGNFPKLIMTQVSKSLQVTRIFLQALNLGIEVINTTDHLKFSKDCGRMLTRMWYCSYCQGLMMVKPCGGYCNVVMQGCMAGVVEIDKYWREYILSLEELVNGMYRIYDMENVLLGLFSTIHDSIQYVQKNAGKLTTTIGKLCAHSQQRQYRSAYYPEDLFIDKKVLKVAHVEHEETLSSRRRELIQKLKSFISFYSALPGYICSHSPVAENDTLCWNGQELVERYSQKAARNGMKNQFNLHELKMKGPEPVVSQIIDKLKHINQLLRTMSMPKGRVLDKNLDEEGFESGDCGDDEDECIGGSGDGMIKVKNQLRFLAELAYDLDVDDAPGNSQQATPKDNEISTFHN

B1: LM1653 (other)
light: DVVMTQSPLSLPVTPGEPASISCRSSQSLVHSNRNTYLHWYLQKPGQSPQLLIYKVSNRFSGVPDRFSGSGSGTDFTLKISRVEAEDVGVYYCSQNTHVPPTFGQGTKLEIKRTVAAPSVFIFPPSDEQLKSGTASVVCLLNNFYPREAKVQWKVDNALQSGNSQESVTEQDSKDSTYSLSSTLTLSKADYEKHKVYACEVTHQGLSSPVTKSFNRGEC
heavy 1: QVQLVQSGAEVKKPGASVKVSCKASGYTFTDYEMHWVRQAPGQGLEWMGALDPKTGDTAYSQKFKGRVTLTADKSTSTAYMELSSLTSEDTAVYYCTRFYSYTYWGQGTLVTVSSASTKGPSVFPLAPSSKSTSGGTAALGCLVKDYFPEPVTVSWNSGALTSGVHTFPAVLQSSGLYSLSSVVTVPSSSLGTQTYICNVNHKPSNTKVDKRVEPKSCDKTGGSEVQLVESGGGLVQPGGSLRLSCVASGDVHKINFLGWYRQAPGKEREKVAHISIGDQTDYADSAKGRFTISRDESKNMVYLQMNSLKPEDTAVYFCRAFSRIYPYDYWGQGTLVTVSSGGGGSTHTCPPCPAPPVAGPSVFLFPPKPKDTLMISRTPEVTCVVVDVKHEDPEVKFNWYVDGVEVHNAKTKPREEQYNSTYRVVSVLTVLHQDWLNGKEYKCKVSNKALPAPIEKTISKAKGQPREPQVCTLPPSREEMTKNQVSLSCAVKGFYPSDIAVEWESNGQPENNYKTTPPVLDSDGSFFLVSKLTVDKSRWQQGNVFSCSVMHEALHNHYTQKSLSLSPGK
heavy 2: QVQLVQSGAEVKKPGASVKVSCKASGYTFTDYEMHWVRQAPGQGLEWMGALDPKTGDTAYSQKFKGRVTLTADKSTSTAYMELSSLTSEDTAVYYCTRFYSYTYWGQGTLVTVSSASTKGPSVFPLAPSSKSTSGGTAALGCLVKDYFPEPVTVSWNSGALTSGVHTFPAVLQSSGLYSLSSVVTVPSSSLGTQTYICNVNHKPSNTKVDKRVEPKSCDKTGGSEVQLLESGGGLVQPGGSLRLSCAASGFTFDDYAIGWFRQAPGKEREGVSCIRVSDGSTYYADSVKGRFTISRDNSKNTLYLQMNSLRAEDTAVYYCAAGSLYTCVQSIVWPARPYYDMDYWGQGTLVTVSSGGGGSTHTCPPCPAPPVAGPSVFLFPPKPKDTLMISRTPEVTCVVVDVKHEDPEVKFNWYVDGVEVHNAKTKPREEQYNSTYRVVSVLTVLHQDWLNGKEYKCKVSNKALPAPIEKTISKAKGQPREPQVYTLPPCREEMTKNQVSLWCLVKGFYPSDIAVEWESNGQPENNYKTTPPVLDSDGSFFLYSKLTVDKSRWQQGNVFSCSVMHEALHNHYTQKSLSLSPGK
notes: also called GPC3 TITAN; LM1653 (GPC3)
**Q.** For B1, which Kd (recombinant human CD8ab) is on record?
**A.** The Kd was 82.7 nM.

**Q.** What about the koff (recombinant human CD8ab) of the same binder?
**A.** The koff was 0.028 s⁻¹.

**Q.** And the kon (recombinant human CD8ab)?
**A.** The kon was 340000 M⁻¹ s⁻¹.

**Q.** And the Kd [1]?
**A.** Its Kd is 62.4 nM.

**Q.** And the koff [1]?
**A.** The koff was 0.0329 s⁻¹.

**Q.** And the kon [1]?
**A.** The kon was 527000 M⁻¹ s⁻¹.

**Q.** And the Kd [2]?
**A.** Its Kd is 0.67 nM.

**Q.** And the koff [2]?
**A.** Its koff is 0.000226 s⁻¹.

**Q.** What about the kon [2] of the same binder?
**A.** Its kon is 341000 M⁻¹ s⁻¹.

**Q.** What about the Kd [3] of the same binder?
**A.** The Kd was 0.82 nM.

**Q.** And the koff [3]?
**A.** The koff was 0.000267 s⁻¹.

**Q.** What about the kon [3] of the same binder?
**A.** The kon was 326000 M⁻¹ s⁻¹.

**Q.** What about the EC50 [4] of the same binder?
**A.** Its EC50 is 8 nM.

**Q.** And the EC50 [5]?
**A.** The EC50 was 2 nM.

B2: LRC150016 (other)
light: DIQMTQSPSSLSASVGDRVTITCRASQDISNYLNWYQQKPGGAVKFLIYYTSRLHSGVPSRFSGSGSGTDYTLTISSLQPEDFATYFCQQGEALPWTFGGGTKVEIKRTVAAPSVFIFPPSDEQLKSGTASVVCLLNNFYPREAKVQWKVDNALQSGNSQESVTEQDSKDSTYSLSSTLTLSKADYEKHKVYACEVTHQGLSSPVTKSFNRGEC
heavy 1: EVQLVQSGAEVKKPGASVKVSCKASGYKFSSYWIEWVKQAPGQGLEWIGEILPGSDTTNYNEKFKDRATFTSDTSINTAYMELSRLRSDDTAVYYCARDRGNYRAWFGYWGQGTLVTVSSASTKGPSVFPLAPSSKSTSGGTAALGCLVKDYFPEPVTVSWNSGALTSGVHTFPAVLQSSGLYSLSSVVTVPSSSLGTQTYICNVNHKPSNTKVDKRVEPKSCDKTGGSEVQLVESGGGLVQPGGSLRLSCVASGDVHKINFLGWYRQAPGKEREKVAHISIGDQTDYADSAKGRFTISRDESKNMVYLQMNSLKPEDTAVYFCRAFSRIYPYDYWGQGTLVTVSSGGGGSTHTCPPCPAPPVAGPSVFLFPPKPKDTLMISRTPEVTCVVVDVKHEDPEVKFNWYVDGVEVHNAKTKPREEQYNSTYRVVSVLTVLHQDWLNGKEYKCKVSNKALPAPIEKTISKAKGQPREPQVCTLPPSREEMTKNQVSLSCAVKGFYPSDIAVEWESNGQPENNYKTTPPVLDSDGSFFLVSKLTVDKSRWQQGNVFSCSVMHEALHNRFTQKSLSLSPGK
heavy 2: EVQLVQSGAEVKKPGASVKVSCKASGYKFSSYWIEWVKQAPGQGLEWIGEILPGSDTTNYNEKFKDRATFTSDTSINTAYMELSRLRSDDTAVYYCARDRGNYRAWFGYWGQGTLVTVSSASTKGPSVFPLAPSSKSTSGGTAALGCLVKDYFPEPVTVSWNSGALTSGVHTFPAVLQSSGLYSLSSVVTVPSSSLGTQTYICNVNHKPSNTKVDKRVEPKSCDKTGGSEVQLLESGGGLVQPGGSLRLSCAASGFTFDDYAIGWFRQAPGKEREGVSCIRVSDGSTYYADSVKGRFTISRDNSKNTLYLQMNSLRAEDTAVYYCAAGSLYTCVQSIVWPARPYYDMDYWGQGTLVTVSSGGGGSTHTCPPCPAPPVAGPSVFLFPPKPKDTLMISRTPEVTCVVVDVKHEDPEVKFNWYVDGVEVHNAKTKPREEQYNSTYRVVSVLTVLHQDWLNGKEYKCKVSNKALPAPIEKTISKAKGQPREPQVYTLPPCREEMTKNQVSLWCLVKGFYPSDIAVEWESNGQPENNYKTTPPVLDSDGSFFLYSKLTVDKSRWQQGNVFSCSVMHEALHNHYTQKSLSLSPGK
notes: also called LRC150016 (LRRC15); LRC150016 engager
**Q.** With B2 as the binder, how does the “EC50 (read off the curve)” value [6] read?
**A.** The value was ~2 nM.

**Q.** And the “EC50 (read off the curve)” value [7]?
**A.** Its value is ~3 nM.
